Earlier results, collected in article PMC7553146.

Legend:
His41 = His41 (UniProt position 3281, VYCPRHVICTA)
Cys145 = Cys145 (UniProt position 3385, FLNGSCGSVGF)

3C-like main protease (3CL Mpro, nsp5) (Severe acute respiratory syndrome coronavirus (SARS-CoV))
pKa (His41): 6.3 ± 0.1 | pKa (Cys145): 8.0 ± 0.3
